# Assay results as given in the supplement of paper PMC9170038.
# Tested on: K4 kissing-loop RNA reporter
# Assay: apparent KD of K4 kissing-loop reporter; higher = weaker reporter binding
# Settings: Eterna round: R107; input ligand: arginine 13.2 mM
# Description: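 RNA-MaP round R107: designed RNA switches with theophylline, tryptophan, arginine or FMN aptamers are transcribed on-chip within common flanks. They are titrated with a labelled K4 kissing-loop RNA reporter in RNA-MaP buffer (100 mM Tris pH 7.5, 80 mM KCl, 4 mM MgCl2), without ligand or with the indicated ligand. Median apparent KD per design.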
# 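Also: bound reporter read as fluorescence of individual clusters on recovered sequencing chips by microscopy, with normalized cluster intensities fitted with a binding model.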
row,Sequence,apparent KD of K4 kissing-loop reporter [µM]
1,UAGGCGGGAGAAGGAUAUCUGUGAAACCUGCUGCCCAAUAAGUGAUGUUUAUAAAGGAAGCGUCAUAGAGAAGGUCUAACAAGUA [theeternabot_sameState_KL_FMN_B_1],0.582
2,AUACAGCGACGCGCUAGUGAUGUUAGCGAAGGAGCGACUCAUGAGUCAGGUAGGUCGCGCUAACGUGGUUACGAGAGUAACCAGU [Arg A Ex t1a],0.0868
3,CAUACGCAUGGAGGAUAUGAGAUUUCUCAUGUCAUUUAAUAUUCUCAGUGAUGUUGAGAAUUUGGCUCAGAAGGCCAUGUGUAUG [Ex FMN B 20],0.465
4,AUUAAUAUCACGGCCGCCACUGAAUAUUGUUUUUAUAUUUAGAAAUCUUGCCAGUGAUGUUGGAUCAGGACCGGGUGAGUUUAUA [JR_SSTryptoB_Sub006],0.439
5,CUAUGGAAACAUAGUAGUCGGGAAACCGAUACCAGUAUGGAAACAUACCCUUGGCAGCGGAAUGAUUAAACGGAGUGAUGUUCCG [Theophylline A K4 18],0.276
6,UUUAUAUUCUGAGGAUAUCGUAUUAAUGAAGUGAUGUUUCAGUAUAUUCUAAUUAUAUAUAAUUUUCGAGAAGGCAGUAUUAUUU [JR_Nu3_SSFMNB_Sub028],0.243
7,GGUUUAUAGGAGGAUACCAGUACGGAUAAAGUACAUUAAUAGUAGAGUGAUGUUCUAAAGUACCCUUGGCAGCUUAGAUUAAGUU [ExTheophylB.I],0.177
8,UGAUACCAGACGGCCGCCACUCCCGCAGGUCAAAGACCUGCGAAGAAGGUUCUUCAGUGAUGUUGGAGGACCGGGUCUGGUAUCU [FiskerMod 22 - Jieux - Exclusion - Tryptophan B],0.168
9,AAAUAAGCUCAUGAUACCAGCCAGUGAUGUUGGUUGGUCCACCGUGUCCGAACAUUAAGCGGCCCUUGGCAGCAUGAUGCGCGUA [Xearxea],0.0985
10,UGACAUUGCUCAGAUACCAGACUUGAGGAUCACCCAAGUGCCAAACGUACAAUAAUAAAAGUCCCUUGGCAGCUGAGCAAUGUCU [TheoBX 14],0.0134
11,AAGCAGUCACUCGAAACCAUCGAAGAUGGGCGAGGACCGGUACGGCCGCCACUCGGAGUGAUGUUCCGAAGACUGCAAAAUAAAA,0.348
12,CCAUCGCUAUUCGAUACCAGUCAUUUUUUAUUUUAUUUUUUUUUUGGAGUGAUGUUCCAAGACCCUUGGCAGCGAAUAGUGAUGG [whbob_SS_Theo_B_th78],0.13
13,AUUUUUUUGUCAGGAUAUUAGUGUGCGUUUGGUUUGUUAGUGAUGUUGAUAUUUGGUUUAUGUAUUUAAGAAGGGAUUUAGCGGU [dhbbtemullin],0.48
14,AAAAUUAACAAGAGUGAUGUUCUUGUUAGACAGGAUAUCGGUUUAACGAGAAGGGUCGUGGCUCCAUUGGGCCCAGUGGUUCACC [Mazareri],0.478
15,UUCGUAGUAGGAAACUAUUACGAAAAGGAAGGAGCGGCGAAGAAGCCAGGUAGGUCGCCUAUUGACAGUGAUGUUGUUAUGUAGA [#9],0.341
16,AGAGUGAUGUUUUUUUGAAGUGAGUAAUGUCGAGGACCGGUACGGCCGCCACUCGAGUGAUGUUAGUGAUGUUGAUGUAGUGAUG [?lmullin],0.0613
17,UAAGAAUAAGUAGCAGUGAUGUUGCUACUGCGAGGACCGGUACGGCCGCCACUCGAGUCCUCGAAACAUCACUGAACGAGGAAUA [whbob_SS_Tryp_A_m11],0.19
18,UUAGUCUAGAGAAGGAGCGCAGUGAUGUUGCGGUAUGUGAAAAUAUGUAUAUAAUAAUAAAUGCAGGUAGGUCGCUCUAGACAUU [AK2 Exc Arginine B],0.0897
19,AUUUUUUUGUCAGGAUAUUAGUAUGCUUUUGGUUUGUUAGUGAUGUUGAUAUUUUGUUUAUGUAUUUAAGAAGGGAUUUAGCGGU [etvuumullin],0.276
20,AAGUGUUCUAGUGAUACCAGACAUUUCUAUUACAUUAAUAUAGCUAAGUGAUGUUUAGCAGUCCCUUGGCAGCACUAUUUCACUA [JR_SSTheophyB_Sub015],0.193
21,AAGCCAGAGAUUGCUGCGGGUUCCAGAGAUACCAGCCGUAUUGAAGGCCCUUGGCAGCUCGAGUGAUGUUCGAGCCGUCUCUAGC [Bisore],0.101
22,UCUCAGGAGUGAUGUUCCGUAGGUGGAAGGAAGGAUAUCUAAUGGCAGAGAAGGUCCAUCCUUGCUCGUAUCAGUGCCGGGAAGC [theeternabot_exclusion_KL_FMN_A_13],0.251
23,CAGGCGACUAUCGAUACCAGAUGAUAUCGACUACUUGAGUGAUGUUCGAUUAAAGGCAUUAUCCCUUGGCAGCGACUGGACACAU [theeternabot_sameState_KL_Theo_B_24],0.505
24,UAAGAUAUGAGGGAUACCAGCCAUAAGGAAAGUGUGAUGAGUGAUGUUCUGACAAGCCAAGGCCCUUGGCAGCUUUAAUAGCAUC [whbob_SS_Theo_B_th76],0.0808
25,UCCUGCAAUCUGCCACGAAAGUGGGUUGAUACCAGAGUCGAAAGACUCCCUUGGCAGCGAGUGAUGUUCGUUGCAGGUGUUUAAA [MatMod 11 - Jieux - Exclusion - Theophylline A],0.172
26,AUUUGUUUAUGUGAUACCAGACUUUGCAGUGAUGUUGCAUUUAUUUUAGAAGAAUAGUUUGUCCCUUGGCAGCACUAUGUAUUUA [JR_SSTheophyB_Sub006],0.0982
27,UGCACCAGUGAUGUUGGUCGGCACCGAGAUACCAGCUGAUCUCUUAGCCCUUGGCAGCUCUUUAUUCGCGUUAUCAGUUUCUUCG [theeternabot_sameState_KL_Theo_A_16],0.368
